The results in this text go back to US20260109774A1 (JUNO THERAPEUTICS, published 2026).

Sequences and labels used below:
B1: BCMA-51 scFv (scFv)
scFv: EVQLVQSGGGLVQPGRSLRLSCTASGFTFGDYAMSWFRQAPGKGLEWVGFIRSKAYGGTTEYAASVKGRFTISRDDSKSIAYLQMNSLKTEDTAVYYCAAWSAPTDYWGQGTLVTVSSGGGGSGGGGSGGGGSAIQLTQSPSTLSASVGDRVAITCRASQNIGDWLAWYQQKPGKAPKLLIFGASILESGVPSRFSGSGSGTDFTLTISSLQPEDVAVYYCQKYDGAPPWTFGQGTKVEIK
B2: BCMA-49 scFv (scFv)
scFv: QVQLVESGGGLVKPGGSLRLSCAASGFTFSDYYMSWIRQAPGKGLEWVSYISSSGSTIYYADSVKGRFTISRDNAKNSLYLQMNSLRAEDTAVYYCAKVDGPPSFDIWGQGTMVTVSSGGGGSGGGGSGGGGSLPVLTQPPSVSVAPGKTARITCGGDQIGRKSVHWYQQKPGQAPVLVMSYDSDRPSGIPERFSGSNSGNTATLTISRVEAGDEAAYYCQVWDSSTGQYVVFGGGTKLTVL
B3: BCMA-48 scFv (scFv)
scFv: EVQLVESGGGLVKPGGSLRLSCAASGFTFSDYYMSWIRQAPGKGLEWVSYISSSGSTIYYADSVKGRFTISRDNAKNSLYLQMNSLRAEDTAVYYCAKVDGPPSFDIWGQGTMVTVSSGGGGSGGGGSGGGGSQPVLTQPPSVSVAPGKTATITCGGNNIGSKSVHWYQRKPGQGPVVVIQYDTDRPSGIPERFSGSNSGNTATLTISRVEAGDEGDYYCQVWDSSSDHWVFGGGTKLTVL

The target in this experiment is T1, human B-cell maturation antigen (BCMA) on cells (human, UniProt Q02223 1-184).
T1 construct: Recombinant on HEK293 or K562 cells, or endogenous on cell lines (H929, RPMI 8226, OPM2, MM1S, Daudi); also called hBCMA; huBCMA
T1 chain: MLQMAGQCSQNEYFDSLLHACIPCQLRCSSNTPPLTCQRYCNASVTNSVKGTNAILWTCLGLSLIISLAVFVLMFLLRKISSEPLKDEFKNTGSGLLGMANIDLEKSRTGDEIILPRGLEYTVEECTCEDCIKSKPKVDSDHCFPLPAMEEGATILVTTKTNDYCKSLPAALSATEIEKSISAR
Briefly: flow cytometry on BCMA-expressing HEK293 cells vs control cells, crude lysate or bacterial supernatant; clone listed in Table E2. The protocol: Specific binding of resulting scFv clones to BCMA-expressing HEK293 cells, as compared to control cells not expressing BCMA, was assessed by flow cytometry either with in vitro translated crude cell lysate or with bacterially-produced supernatant.
As for B1, the binding result is “binds”.
The value for B2 was “binds”; that for B3 was “binds”.
